Experiment [1] addresses HSV-1 gD-Sm (herpes simplex virus 1 (strain KOS)) (UniProt Q69091). Briefly: split reporter.
Experiment [2] has as its target HSV-1 gB-Sm (herpes simplex virus 1 (strain KOS)) (UniProt P06437). Description: split reporter.

UniProt Q69091, sequence (Q69091 26-394): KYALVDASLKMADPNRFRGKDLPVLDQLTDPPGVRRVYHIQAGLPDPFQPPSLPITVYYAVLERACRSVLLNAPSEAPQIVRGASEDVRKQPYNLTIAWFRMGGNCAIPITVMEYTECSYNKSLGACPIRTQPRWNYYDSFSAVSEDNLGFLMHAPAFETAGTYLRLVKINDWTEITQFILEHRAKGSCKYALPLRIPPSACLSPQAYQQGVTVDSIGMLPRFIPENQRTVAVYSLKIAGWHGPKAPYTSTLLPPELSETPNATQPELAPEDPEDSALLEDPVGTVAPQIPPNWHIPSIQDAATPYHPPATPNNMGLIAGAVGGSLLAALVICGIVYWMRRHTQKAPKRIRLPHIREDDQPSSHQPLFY

For “HSV-1 gH-Lg expressed without gL (from UniProt P06477 19-838) (natural protein)”, the fold reduction of the NanoBiT interaction in the absence of gL against gH/gL worked out at 6 fold in experiment [1] and 2 fold in experiment [2].

Values taken from doi:10.1101/2022.05.07.491029.
